The values that follow come from PMC6981147.

Test [1] addresses Rpn13 proteasome (reconstituted proteasome harboring the rpn1-ARR and rpn10-UIM mutations) (S. cerevisiae) (UniProt P38764).
Test [2] addresses wild-type proteasome (reconstituted from regulatory particle and core particle) (S. cerevisiae) (UniProt P38764).
Test [3] deals with TM (triple mutant) proteasome (rpn1-ARR, rpn10-uim, rpn13-pru) (S. cerevisiae) (UniProt P38764).
Test [4] has as its target Rpn13 proteasome (rpn1-ARR, rpn10-uim) (S. cerevisiae) (UniProt P38764).
The target of test [5] is Rpn10 proteasome (rpn1-ARR, rpn13-pru) (S. cerevisiae) (UniProt P38764).
Test [6] has as its target Rpn1 proteasome (reconstituted proteasome harboring the rpn10-UIM and rpn13-pru mutations) (S. cerevisiae) (UniProt P38764).
Test [7] concerns the target Rpn10/13 proteasome (rpn1-ARR) (S. cerevisiae) (UniProt P38764).

In turn, “UBL-GFP-35 (from UniProt P32628 1-80; P00175 1-35)” showed an initial rate of degradation (GFP fluorescence), single turnover, 5 nM substrate, 25 nM proteasome, 1 mM ATP, 30 °C; against Ub5(K48)-GFP-35 or Ub9(K48)-GFP-35 on the same proteasome in test [1] of more than 4 fold.

Turning to “Ub5(K63)-GFP-35: base protein Ub-GFP-35 with a K63-linked chain of four ubiquitins attached to its ubiquitin domain (from UniProt P0CG63 1-76; P0CG63 1-76)”, the Supplementary Table 4: KM of degradation (Michaelis-Menten analysis of initial rates of loss of GFP fluorescence, 25 nM proteasome, 1 mM ATP, 30 °C) was 0.333 µM in test [2], 2.06 µM in test [3], 0.816 µM in test [4] and 0.428 µM in test [5].

As for UBL-GFP-95 (from UniProt P32628 1-80), in test [6], the initial rate of degradation (GFP fluorescence), single turnover, 5 nM substrate, 25 nM proteasome, 1 mM ATP, 30 °C; against Ub5(K48)-GFP-95 on the same proteasome came out at 4 fold.

“Ub5(K48)-GFP-35: base protein Ub-GFP-35 with a K48-linked chain of four ubiquitins attached to its ubiquitin domain (from UniProt P0CG63 1-76; P0CG63 1-76)”: the Supplementary Table 4: KM of degradation (Michaelis-Menten analysis of initial rates of loss of GFP fluorescence, 25 nM proteasome, 1 mM ATP, 30 °C) in test [7] was 0.058 µM; in test [3], 5.28 µM; in test [4] it was 5.72 µM.

As for “Ub9(K48)-GFP-35: base protein Ub-GFP-35 with a K48-linked chain of eight ubiquitins attached to its ubiquitin domain (from UniProt P0CG63 1-76; P0CG63 1-76)”, the results for the Supplementary Table 4: KM of degradation (Michaelis-Menten analysis of initial rates of loss of GFP fluorescence, 25 nM proteasome, 1 mM ATP, 30 °C) in test [2], in test [3] and in test [4] were 0.05 µM, 1.68 µM and 1.1 µM, respectively.
